Measured values published in PMC8136776.

How the values were obtained:
[1] = target: mPOLγA A449T;mPOLγB (Mus musculus;Mus musculus, UniProt P54099;Q9QZM2 26-1218;17-459, A450T|); assay: EMSA
[2] = target: T1, mPOLγA A449T (Mus musculus, UniProt P54099 26-1218, A450T); assay: EMSA
T1 sequence: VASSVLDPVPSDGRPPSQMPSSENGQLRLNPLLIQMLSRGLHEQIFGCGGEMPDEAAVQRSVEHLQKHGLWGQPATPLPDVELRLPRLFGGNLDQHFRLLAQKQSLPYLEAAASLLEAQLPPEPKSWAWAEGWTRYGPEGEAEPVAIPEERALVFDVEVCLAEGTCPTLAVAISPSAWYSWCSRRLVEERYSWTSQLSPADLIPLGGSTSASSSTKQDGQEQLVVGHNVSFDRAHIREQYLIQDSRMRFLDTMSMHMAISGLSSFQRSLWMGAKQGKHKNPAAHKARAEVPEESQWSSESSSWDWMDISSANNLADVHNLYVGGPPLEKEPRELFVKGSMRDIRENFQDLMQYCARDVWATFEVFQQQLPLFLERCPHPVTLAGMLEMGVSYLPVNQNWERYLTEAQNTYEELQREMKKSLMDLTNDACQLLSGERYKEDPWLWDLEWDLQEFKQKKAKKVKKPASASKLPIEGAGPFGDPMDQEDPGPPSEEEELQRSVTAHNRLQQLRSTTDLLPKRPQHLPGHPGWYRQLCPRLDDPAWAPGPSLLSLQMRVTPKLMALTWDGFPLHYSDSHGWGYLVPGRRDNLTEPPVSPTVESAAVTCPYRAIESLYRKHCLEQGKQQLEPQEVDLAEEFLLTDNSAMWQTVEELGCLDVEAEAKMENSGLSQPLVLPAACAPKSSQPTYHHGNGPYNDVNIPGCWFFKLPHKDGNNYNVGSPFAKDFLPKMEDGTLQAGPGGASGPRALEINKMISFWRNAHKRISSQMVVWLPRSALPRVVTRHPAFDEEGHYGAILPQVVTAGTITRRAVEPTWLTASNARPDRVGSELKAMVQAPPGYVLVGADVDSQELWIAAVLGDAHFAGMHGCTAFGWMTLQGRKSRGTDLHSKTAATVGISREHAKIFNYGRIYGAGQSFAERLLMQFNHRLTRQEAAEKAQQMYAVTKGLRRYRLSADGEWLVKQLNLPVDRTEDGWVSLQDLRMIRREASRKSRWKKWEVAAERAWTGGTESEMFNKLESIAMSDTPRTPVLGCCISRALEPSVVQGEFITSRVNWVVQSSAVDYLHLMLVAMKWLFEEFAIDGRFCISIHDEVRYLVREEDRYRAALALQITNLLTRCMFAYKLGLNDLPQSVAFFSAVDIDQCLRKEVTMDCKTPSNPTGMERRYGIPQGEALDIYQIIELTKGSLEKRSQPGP

Chain of mPOLγA A449T;mPOLγB (Q9QZM2 17-459, stated change not applied, one chain of several): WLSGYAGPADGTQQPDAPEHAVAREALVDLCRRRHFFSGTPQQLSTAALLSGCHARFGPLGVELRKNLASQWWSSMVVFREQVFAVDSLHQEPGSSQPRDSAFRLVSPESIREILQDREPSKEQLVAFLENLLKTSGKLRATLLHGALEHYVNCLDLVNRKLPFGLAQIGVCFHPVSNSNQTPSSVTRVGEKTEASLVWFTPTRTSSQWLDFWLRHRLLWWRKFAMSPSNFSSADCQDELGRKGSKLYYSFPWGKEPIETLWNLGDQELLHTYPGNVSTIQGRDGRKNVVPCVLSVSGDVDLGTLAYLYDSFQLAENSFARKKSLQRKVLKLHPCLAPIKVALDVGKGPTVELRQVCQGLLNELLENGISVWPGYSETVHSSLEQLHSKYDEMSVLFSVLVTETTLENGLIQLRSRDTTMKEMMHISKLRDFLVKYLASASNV

B1: 36/21-nt primer-template (mixed)
DNA 1: TTTTTTTTTTATCCGGGCTCCTCTAGACTCGACCGC
DNA 2: GCGGTCGAGTCTAGAGGAGCC
binding signal [1]: 1.75 fold lower binding than WT holoenzyme
binding signal [2]: ~3.4 fold lower binding than WT
